# Test system: full-length NEDD4L
# Test: FP binding of Alexa Fluor-tagged recombinant AMOT1-300 to full-length recombinant NEDD4L
# Method: A labeled peptide (GGG-ALEXA488) was added to AMOT1-300 (which carried a sortase tag) by transpeptidation with sortase. Typical reactions contained 10 to 50 μM AMOT1-300, 30 to 150 μM GGG-ALEXA488 peptide and 20 μM sortase enzyme in the reaction buffer (50 mM Tris [pH 7.5], 150 mM NaCl and 10 mM CaCl2). Reactions were allowed to proceed at either room temperature or 4 °C until the reaction was complete (typically 1–4 h). AMOT1-300–ALEXA488 was then purified by ion-exchange chromatography (SP HiTrap) as described above.
# Each dilution series was performed at least in triplicate. […] The mean Kd values are reported as mean ± SEM.
molecule,measurement,setting,value
"AMOT1-300: Alexa Fluor 488-tagged recombinant AMOT construct (residues 1–300) spanning all three PPxY motifs, labeled by sortase transpeptidation (protein, GGG-ALEXA488 peptide added by transpeptidation with sortase; left off: His, end not stated, state not stated | sortase tag, end not stated, kept, Alexa Fluor 488-tagged recombinant AMOT construct (residues 1–300) spanning all three PPxY motifs, labeled by sortase transpeptidation) MRNSEEQPSGGTTVLQRLLQEQLRYGNPSENRSLLAIHQQATGNGPPFPSGSGNPGPQSDVLSPQDHHQQLVAHAARQEPQGQEIQSENLIMEKQLSPRMQNNEELPTYEEAKVQSQYFRGQQHASVGAAFYVTGVTNQKMRTEGRPSVQRLNPGKMHQDEGLRDLKQGHVRSLSERLMQMSLATSGVKAHPPVTSAPLSPPQPNDLYKNPTSSSEFYKAQGPLPNQHSLKGMEHRGPPPEYPFKGMPPQSVVCKPQEPGHFYSEHRLNQPGRTEGQLMRYQHPPEYGAARPAQDISLPL",fold tighter binding than the isolated AMOT PPxY1-NEDD4L WW3 complex,AMOT1-300-full-length NEDD4L vs PPxY1-WW3,1.5 fold
same,"apparent dissociation constant, AMOT1-300 with full-length NEDD4L","Fig. 3C/E, FP, Alexa Fluor 488-tagged AMOT1-300, full isotherm not sampled because of limited solubility of full-length NEDD4L",2.7 ± 0.8 µM

# Reference: article PMC8368996, “Interactions between AMOT PPxY motifs and NEDD4L WW domains function in HIV-1 release” (The Journal of Biological Chemistry, 2021)
